Data as given in paper PMC8260793, “A split protease-E. coli ClpXP system quantifies protein–protein interactions in Escherichia coli cells” (Communications Biology, 2021).
Each block holds one molecule with its values, some of them ahead of it.

How the values were obtained:
[1] = target: Csy2 of Z. mobilis Type I-F CRISPR/Cas complex (Zymomonas mobilis); assay: split reporter (BiFC, NanoBiT); SPEC profiling of CRISPR/Cas effectors and Cas3 / Cas2-3 mutants in E. coli cells; sfGFP fluorescence by flow cytometry; interaction intensity normalized to cells expressing wt HRV 3 C protease
[2] = target: Csy3 of Z. mobilis Type I-F CRISPR/Cas complex (Zymomonas mobilis); assay: as above
[3] = target: Csy4 of Z. mobilis Type I-F CRISPR/Cas complex (Zymomonas mobilis); assay: as above
[4] = target: Csy1 of Z. mobilis Type I-F CRISPR/Cas complex (Zymomonas mobilis); assay: as above
[5] = target: Cas1 of Z. mobilis Type I-F CRISPR/Cas complex (Zymomonas mobilis); assay: as above
[6] = target: Csy4 of Z. mobilis Type I-F CRISPR/Cas complex; assay: SPEC system (split protease-E. coli ClpXP) in E. coli cells; settings: parent: 100; read off a plot
[7] = target: Cas1 of Z. mobilis Type I-F CRISPR/Cas complex; assay: as above; settings: parent: 100; read off a plot
[8] = target: Csy3 of Z. mobilis Type I-F CRISPR/Cas complex; assay: as above; settings: parent: 100; read off a plot
[9] = target: Csy2 of Z. mobilis Type I-F CRISPR/Cas complex; assay: as above; settings: parent: 100; read off a plot
[10] = target: T1, Cas2 of E. coli K12 Type I-E CRISPR/Cas complex (E. coli K12, UniProt P45956 1-94); assay: split reporter (BiFC, NanoBiT); SPEC profiling of CRISPR/Cas effectors and Cas3 / Cas2-3 mutants in E. coli cells; sfGFP fluorescence by flow cytometry; interaction intensity normalized to cells expressing wt HRV 3 C protease; settings: partners not purified
T1 construct: Cas2, effector of the type I-E CRISPR/Cas complex of E. coli K12; source: E. coli BL21(DE3) or BL21(DE3)-SPEC, expressed in the cells (IPTG induction)
T1 sequence (looked up): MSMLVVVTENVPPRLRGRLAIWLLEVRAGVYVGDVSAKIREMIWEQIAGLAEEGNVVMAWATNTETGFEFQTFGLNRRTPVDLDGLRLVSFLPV

[11] = target: T2, Cas5 of E. coli K12 Type I-E CRISPR/Cas complex (E. coli K12, UniProt Q46898 1-224); assay: as above; settings: partners not purified
T2 construct: Cas5, effector of the type I-E CRISPR/Cas complex of E. coli K12; source: E. coli BL21(DE3) or BL21(DE3)-SPEC, expressed in the cells (IPTG induction)
T2 sequence (looked up): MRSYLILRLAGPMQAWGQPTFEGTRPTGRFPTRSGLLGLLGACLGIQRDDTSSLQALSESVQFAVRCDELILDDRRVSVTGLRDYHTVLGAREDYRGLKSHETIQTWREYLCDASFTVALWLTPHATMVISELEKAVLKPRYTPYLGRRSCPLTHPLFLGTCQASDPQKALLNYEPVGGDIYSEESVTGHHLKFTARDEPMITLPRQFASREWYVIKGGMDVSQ

[12] = target: T3, Cas7 of E. coli K12 Type I-E CRISPR/Cas complex (E. coli K12, UniProt Q46899 1-363); assay: as above; settings: partners not purified
T3 construct: Cas7, effector of the type I-E CRISPR/Cas complex of E. coli K12; source: E. coli BL21(DE3) or BL21(DE3)-SPEC, expressed in the cells (IPTG induction)
T3 sequence (looked up): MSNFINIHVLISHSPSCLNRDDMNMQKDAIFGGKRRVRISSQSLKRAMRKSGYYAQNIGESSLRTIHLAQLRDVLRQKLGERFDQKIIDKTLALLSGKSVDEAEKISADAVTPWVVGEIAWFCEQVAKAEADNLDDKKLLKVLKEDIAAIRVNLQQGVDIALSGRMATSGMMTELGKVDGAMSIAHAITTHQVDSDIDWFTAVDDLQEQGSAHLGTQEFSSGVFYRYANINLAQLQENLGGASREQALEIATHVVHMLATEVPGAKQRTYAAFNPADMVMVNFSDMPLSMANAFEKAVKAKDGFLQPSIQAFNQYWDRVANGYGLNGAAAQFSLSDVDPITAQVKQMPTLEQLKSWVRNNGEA

[13] = target: T4, Cas11 of E. coli K12 Type I-E CRISPR/Cas complex (E. coli K12, UniProt P76632 1-160); assay: as above; settings: partners not purified
T4 construct: Cas11, effector of the type I-E CRISPR/Cas complex of E. coli K12; source: E. coli BL21(DE3) or BL21(DE3)-SPEC, expressed in the cells (IPTG induction)
T4 sequence (looked up): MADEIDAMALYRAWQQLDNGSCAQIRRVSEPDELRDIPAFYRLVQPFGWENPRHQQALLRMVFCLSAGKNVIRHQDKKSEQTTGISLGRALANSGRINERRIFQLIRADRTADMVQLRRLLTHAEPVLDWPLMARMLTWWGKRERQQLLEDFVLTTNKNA

normalized interaction intensity [1]: > 80% | normalized interaction intensity [2]: 14% | normalized interaction intensity [3]: > 80%
Molecule: Cas1 of Z. mobilis Type I-F CRISPR/Cas complex (natural protein)

increase of the interaction over Cas2-3 wild type [4]: > 40%
Molecule: Cas2-3 D124A (Z. mobilis Type I-F) (natural protein)

increase of the interaction over Cas2-3 wild type [4]: > 40%
Molecule: Cas2-3 D608N (Z. mobilis Type I-F) (natural protein)

increase of the interaction over Cas2-3 wild type [4]: > 40%
Molecule: Cas2-3 H123A (Z. mobilis Type I-F) (natural protein)

normalized interaction intensity [1]: 21% | normalized interaction intensity [4]: 10%
Molecule: Cas2-3 K127A (Z. mobilis Type I-F) (natural protein)

increase of the interaction over Cas2-3 wild type [4]: > 40%
Molecule: Cas2-3 K458N (Z. mobilis Type I-F) (natural protein)

increase of the interaction over Cas2-3 wild type [4]: > 40%
Molecule: Cas2-3 S639A/T641A (Z. mobilis Type I-F) (natural protein)

normalized interaction intensity [5]: 99% | normalized interaction intensity [1]: 88% | normalized interaction intensity [4]: 63% | normalized interaction intensity [2]: > 80% | normalized interaction intensity [3]: > 80%
Molecule: Cas2-3 of Z. mobilis Type I-F CRISPR/Cas complex (natural protein)

percent of parent [6]: 110% | percent of parent [7]: 95% | percent of parent [8]: 110%
Molecule: Cas2-3 of Z. mobilis Type I-F CRISPR/Cas complex D124A

percent of parent [6]: 110% | percent of parent [8]: 110% | percent of parent [9]: 78%
Molecule: Cas2-3 of Z. mobilis Type I-F CRISPR/Cas complex D608N

percent of parent [6]: 110% | percent of parent [8]: 110%
Molecule: Cas2-3 of Z. mobilis Type I-F CRISPR/Cas complex H123A

percent of parent [6]: 110% | percent of parent [8]: 110%
Molecule: Cas2-3 of Z. mobilis Type I-F CRISPR/Cas complex K127A

percent of parent [6]: 110% | percent of parent [7]: 97% | percent of parent [8]: 120% | percent of parent [9]: 110%
Molecule: Cas2-3 of Z. mobilis Type I-F CRISPR/Cas complex K458N

percent of parent [6]: 110% | percent of parent [8]: 110% | percent of parent [9]: 110%
Molecule: Cas2-3 of Z. mobilis Type I-F CRISPR/Cas complex S639A; T641A

normalized interaction intensity [1]: > 80% | normalized interaction intensity [3]: > 80%
Molecule: Csy1 of Z. mobilis Type I-F CRISPR/Cas complex (natural protein)

normalized interaction intensity [10]: 56% | normalized interaction intensity [11]: > 80%
B1: Cas3 of E. coli K12 Type I-E CRISPR/Cas complex (natural protein, UniProt P38036 1-888, looked up)
chain: MEPFKYICHYWGKSSKSLTKGNDIHLLIYHCLDVAAVADCWWDQSVVLQNTFCRNEMLSKQRVKAWLLFFIALHDIGKFDIRFQYKSAESWLKLNPATPSLNGPSTQMCRKFNHGAAGLYWFNQDSLSEQSLGDFFSFFDAAPHPYESWFPWVEAVTGHHGFILHSQDQDKSRWEMPASLASYAAQDKQAREEWISVLEALFLTPAGLSINDIPPDCSSLLAGFCSLADWLGSWTTTNTFLFNEDAPSDINALRTYFQDRQQDASRVLELSGLVSNKRCYEGVHALLDNGYQPRQLQVLVDALPVAPGLTVIEAPTGSGKTETALAYAWKLIDQQIADSVIFALPTQATANAMLTRMEASASHLFSSPNLILAHGNSRFNHLFQSIKSRAITEQGQEEAWVQCCQWLSQSNKKVFLGQIGVCTIDQVLISVLPVKHRFIRGLGIGRSVLIVDEVHAYDTYMNGLLEAVLKAQADVGGSVILLSATLPMKQKQKLLDTYGLHTDPVENNSAYPLINWRGVNGAQRFDLLAHPEQLPPRFSIQPEPICLADMLPDLTMLERMIAAANAGAQVCLICNLVDVAQVCYQRLKELNNTQVDIDLFHARFTLNDRREKENRVISNFGKNGKRNVGRILVATQVVEQSLDVDFDWLITQHCPADLLFQRLGRLHRHHRKYRPAGFEIPVATILLPDGEGYGRHEHIYSNVRVMWRTQQHIEELNGASLFFPDAYRQWLDSIYDDAEMDEPEWVGNGMDKFESAECEKRFKARKVLQWAEEYSLQDNDETILAVTRDGEMSLPLLPYVQTSSGKQLLDGQVYEDLSHEQQYEALALNRVNVPFTWKRSFSEVVDEDGLLWLEGKQNLDGWVWQGNSIVITYTGDEGMTRVIPANPK
notes: Cas3, effector of the type I-E CRISPR/Cas complex of E. coli K12; source: E. coli BL21(DE3) or BL21(DE3)-SPEC, expressed in the cells (IPTG induction)

normalized interaction intensity [12]: > 80%
B2: Cas6 of E. coli K12 Type I-E CRISPR/Cas complex (natural protein, UniProt Q46897 1-199, looked up)
chain: MYLSKVIIARAWSRDLYQLHQGLWHLFPNRPDAARDFLFHVEKRNTPEGCHVLLQSAQMPVSTAVATVIKTKQVEFQLQVGVPLYFRLRANPIKTILDNQKRLDSKGNIKRCRVPLIKEAEQIAWLQRKLGNAARVEDVHPISERPQYFSGDGKSGKIQTVCFEGVLTINDAPALIDLVQQGIGPAKSMGCGLLSLAPL
notes: Cas6, effector of the type I-E CRISPR/Cas complex of E. coli K12; source: E. coli BL21(DE3) or BL21(DE3)-SPEC, expressed in the cells (IPTG induction)

normalized interaction intensity [13]: > 80% | normalized interaction intensity [10]: 92% | normalized interaction intensity [11]: > 80%
B3: Cas1 of E. coli K12 Type I-E CRISPR/Cas complex (natural protein, UniProt Q46896 1-305, looked up)
chain: MTWLPLNPIPLKDRVSMIFLQYGQIDVIDGAFVLIDKTGIRTHIPVGSVACIMLEPGTRVSHAAVRLAAQVGTLLVWVGEAGVRVYASGQPGGARSDKLLYQAKLALDEDLRLKVVRKMFELRFGEPAPARRSVEQLRGIEGSRVRATYALLAKQYGVTWNGRRYDPKDWEKGDTINQCISAATSCLYGVTEAAILAAGYAPAIGFVHTGKPLSFVYDIADIIKFDTVVPKAFEIARRNPGEPDREVRLACRDIFRSSKTLAKLIPLIEDVLAAGEIQPPAPPEDAQPVAIPLPVSLGDAGHRSS
notes: Cas1, effector of the type I-E CRISPR/Cas complex of E. coli K12; source: E. coli BL21(DE3) or BL21(DE3)-SPEC, expressed in the cells (IPTG induction)
